In patent US20230054375A1 (UAB RESEARCH FOUNDATION, published 2023):

Target: CD47 receptor (plate-coated and soluble antigen of the affinity ELISA) (UniProt Q08722 19-141, limits assumed)
Test: ELISA of equilibrated mAb/receptor mixtures on CD47-coated plate (Friguet method)
Experimental: Briefly, the 96-well plate was coated with 200 ng of CD47 receptor in 100 μL of coating buffer (50 mM carbonate-bicarbonate buffer, pH 9.6) and incubated at 4° C. overnight. The plate was washed three times with PBS containing 0.05% Tween 20, and blocked with 2% BSA (bovine serum albumin). […] After incubating at 37° C. for 1 hr, 100 μL of HRP goat anti-mouse IgG secondary antibody (Abcam, Cambridge, Mass.) at concentration of 50 ng/mL was added to each well and incubated at 37° C. for 1 hr, followed with TMB substrate for color development. The reaction was stopped by adding 100 μL of 1M sulfuric acid. The absorbance was recorded with BioTek plate reader at a wavelength of 450 nm.

Chain of CD47 receptor (plate-coated and soluble antigen of the affinity ELISA) (Q08722 19-141 limits assumed): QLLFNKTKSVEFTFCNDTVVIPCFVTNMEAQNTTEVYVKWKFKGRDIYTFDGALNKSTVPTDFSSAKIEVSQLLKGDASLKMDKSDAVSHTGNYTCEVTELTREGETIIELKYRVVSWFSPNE

Kd: 2.3 nM
B1: anti-CD47 monoclonal antibody (IgG2b/kappa) (antibody, V domains shown)
VH: EVQLVESGGGLVQPKGSLKLSCAASGFTFNTYAMNWVRQAPGKGLEWIARIRSKSNNYATYYADSMKDRFTISRDDSQSMLYLQMNNLKTEDTAMYYCVRPAQGAMDYWGHGTSVTVSS
VL: DIVLTQSPATLSVTPGDSVSLSCRASQRISNNLHWYQQKSHESPRLLIKYSSQSISGIPSRFSGSGSGTDFTLSINSVETEDFGMYFCQQSNAWPYTFGGGTKLEIRR
notes: The antibody was labelled with Alexa Fluor 647 for flow cytometry and confocal imaging; also called anti-CD47 mAb; CD47 mAb
